Data as given in paper doi:10.1101/520460.
Read-outs that look alike come from different tables or passages of the source.

Assays:
[1] = target: paclitaxel stabilized microtubules (polymerized bovine brain tubulin) (bovine) (UniProt Q6B856); experiment: co-sedimentation
[2] = target: paclitaxel stabilized microtubules (polymerized bovine brain tubulin) (bovine) (UniProt Q6B856); experiment: co-sedimentation; remark: listed apart in the source
[3] = target: paclitaxel stabilized microtubules (polymerized bovine brain tubulin) (bovine) (UniProt Q6B856); experiment: co-sedimentation; remark: listed apart in the source
[4] = target: subtilisin-treated microtubules (C-terminal tails of α- and β-tubulin removed) (bovine) (UniProt Q6B856)
subtilisin-treated microtubules (C-terminal tails of α- and β-tubulin removed) (bovine), sequence (Q6B856 whole entry, looked up): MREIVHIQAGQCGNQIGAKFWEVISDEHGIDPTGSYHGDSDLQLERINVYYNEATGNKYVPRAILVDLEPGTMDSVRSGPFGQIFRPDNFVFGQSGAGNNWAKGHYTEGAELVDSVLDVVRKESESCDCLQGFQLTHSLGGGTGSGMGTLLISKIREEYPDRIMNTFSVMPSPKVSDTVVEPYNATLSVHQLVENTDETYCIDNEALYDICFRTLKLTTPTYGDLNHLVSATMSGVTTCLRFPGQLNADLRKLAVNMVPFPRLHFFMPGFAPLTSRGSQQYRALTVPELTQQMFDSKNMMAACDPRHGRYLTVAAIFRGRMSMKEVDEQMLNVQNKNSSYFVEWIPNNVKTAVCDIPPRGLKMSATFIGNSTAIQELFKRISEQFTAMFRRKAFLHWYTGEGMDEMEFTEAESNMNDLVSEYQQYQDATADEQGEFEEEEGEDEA

paclitaxel stabilized microtubules (polymerized bovine brain tubulin) (bovine), sequence (Q6B856 whole entry, looked up): as above

- Kd [1]: 110 nM
- Kd [2]: 160 nM
- Kd [3]: 500 nM
- K0.5,S-MT of the steady-state ATPase on subtilisin treated microtubules [4]: 1.1 µM
Substance: catalytic domain plus the putative neck linker of human kinesin-like DNA-binding protein (KID), Gly5-Leu379 (domain or fragment)
